Consider six molecules from US20260167721A1 (ABLEXIS, published 2026).

To fix the notation:
B1: CD3 × CD33-BspAb72 (bispecific antibody)
chain 1: EVQLVESGGGLVQPGGSLRLSCAASGFTFSSYSMNWVRQAPGKCLEWVSYISSSSSTIYYADSVKGRFTISRDNAKNSLYLQMNSLRDEDTAVYYCARDGPVDYGMDVWGQGTTVTVSSGGGGSGGGGSGGGGSGGGGSSYELTQPPSVSVSPGQTARITCSGDALPKQYTYWYQQKPGQAPVLVIYKDSERPSGIPERFSGSSSGTTVTLTISGVQAEDEADYYCQSADSSGTYRVFGCGTKLTVLDKTHTCPPCPAPEFEGGPSVFLFPPKPKDTLMISRTPEVTCVVVDVSHEDPEVKFNWYVDGVEVHNAKTKPREEQYNSTYRVVSVLTVLHQDWLNGKEYKCKVSNKALPASIEKTISKAKGQPREPQVYTLPPCREEMTKNQVSLWCLVKGFYPSDIAVEWESNGQPENNYKTTPPVLDSDGSFFLYSKLTVDKSRWQQGNVFSCSVMHEALHNHYTQKSLSLSPGK
chain 2: EVQLVQSGAEVKKPGSSVKVSCKASGYTITDSNIHWVRQAPGQSLEWIGYIYPYNGGTDYNQKFKNRATLTVDNPTNTAYMELSSLRSEDTAFYYCVNGNPWLAYWGQGTLVTVSSASTKGPSVFPLAPSSKSTSGGTAALGCLVKDYFPEPVTVSWNSGALTSGVHTFPAVLQSSGLYSLSSVVTVPSSSLGTQTYICNVNHKPSNTKVDKRVEPKSCDKTHTCPPCPAPEFEGGPSVFLFPPKPKDTLMISRTPEVTCVVVDVSHEDPEVKFNWYVDGVEVHNAKTKPREEQYNSTYRVVSVLTVLHQDWLNGKEYKCKVSNKALPASIEKTISKAKGQPREPQVCTLPPSREEMTKNQVSLSCAVKGFYPSDIAVEWESNGQPENNYKTTPPVLDSDGSFFLVSKLTVDKSRWQQGNVFSCSVMHEALHNRFTQKSLSLSPGK
chain 3: DIQLTQSPSTLSASVGDRVTITCRASESLDNYGIRFLTWFQQKPGKAPKLLMYAASNQGSGVPSRFSGSGSGTEFTLTISSLQPDDFATYYCQQTKEVPWSFGQGTKVEVKRTVAAPSVFIFPPSDEQLKSGTASVVCLLNNFYPREAKVQWKVDNALQSGNSQESVTEQDSKDSTYSLSSTLTLSKADYEKHKVYACEVTHQGLSSPVTKSFNRGEC
B2: CD3 × CD33-BspAb73 (bispecific antibody)
scFv-Fc: EVQLVESGGGLVKPGGSLRLSCAASGFTFSSYSMNWVRQAPGKCLEWVSSVNSRGSYIYYADSVKGRFTISRDNAKDSLYLQMNSLRADDTAVYYCARDRRELLLDYWGQGTLVTVSSGGGGSGGGGSGGGGSGGGGSSYELTQPPSVSVSPGQTARITCSGDALPKKYAYWYQQKSGQAPVLVIYEDSKRPSGIPERFSGSSSGTMATLTISGAQVEDEADYYCYSTDSSGNHSWVFGCGTKLTVLGGGGSDKTHTCPPCPAPEFEGGPSVFLFPPKPKDTLMISRTPEVTCVVVDVSHEDPEVKFNWYVDGVEVHNAKTKPREEQYNSTYRVVSVLTVLHQDWLNGKEYKCKVSNKALPASIEKTISKAKGQPREPQVYTLPPCREEMTKNQVSLWCLVKGFYPSDIAVEWESNGQPENNYKTTPPVLDSDGSFFLYSKLTVDKSRWQQGNVFSCSVMHEALHNHYTQKSLSLSPGK
heavy: B1 chain 2
light: B1 chain 3
notes: KiH heterodimer
B3: CD3 × CD33-BspAb75 (bispecific antibody)
scFv-Fc: EVQLVESGGGLVKPGGSLRLSCAASGFTFSSYSMNWVRQAPGKCLEWVSSISRRSGYIYYADSVKGRFTLSRDNAKKSLYLQMNSLRAEDTAVYYCARDLNWAFDYWGQGTLVTVSSGGGGSGGGGSGGGGSGGGGSNFMLTQPHSVSESPGKTVTISCTRSSGSIASNYVQWYQQRPGSSPTTVIYEDNHRPSGVPDRFSGSIDSSSNSASLTIAGLKTEDEADYYCQSYDSSNVVFGCGTKLTVLGGGGSDKTHTCPPCPAPEFEGGPSVFLFPPKPKDTLMISRTPEVTCVVVDVSHEDPEVKFNWYVDGVEVHNAKTKPREEQYNSTYRVVSVLTVLHQDWLNGKEYKCKVSNKALPASIEKTISKAKGQPREPQVYTLPPCREEMTKNQVSLWCLVKGFYPSDIAVEWESNGQPENNYKTTPPVLDSDGSFFLYSKLTVDKSRWQQGNVFSCSVMHEALHNHYTQKSLSLSPGK
heavy: B1 chain 2
light: B1 chain 3
notes: KiH heterodimer
B4: CD3 × CD33-BspAb76 (bispecific antibody)
chain 1: EVQLVESGGGLVKPGGSLRLSCAASGFTFSSYSMNWVRQAPGKCLEWVSSISRRSGYIYYADSVKGRFTLSRDNAKKSLYLQMNSLRAEDTAVYYCARDLNWAFDYWGQGTLVTVSSGGGGSGGGGSGGGGSGGGGSNFMLTQPHSVSESPGKTVTISCTRSSGSIASNYVQWYQQRPGSSPTTVIYEDNHRPSGVPDRFSGSIDSSSNSASLTIAGLKTEDEADYYCQSSDSSNVVFGCGTKLTVLDKTHTCPPCPAPEFEGGPSVFLFPPKPKDTLMISRTPEVTCVVVDVSHEDPEVKFNWYVDGVEVHNAKTKPREEQYNSTYRVVSVLTVLHQDWLNGKEYKCKVSNKALPASIEKTISKAKGQPREPQVYTLPPCREEMTKNQVSLWCLVKGFYPSDIAVEWESNGQPENNYKTTPPVLDSDGSFFLYSKLTVDKSRWQQGNVFSCSVMHEALHNHYTQKSLSLSPGK
chain 2: B1 chain 2
chain 3: B1 chain 3
B5: CD3 × CD33-BspAb65 (bispecific antibody)
chain 1: NFMLTQPHSVSESPGKTVTIACTRSSGSIASNYVQWYQQRPGSSPTTVIYEDNQRPSGVPDRFSGSIDSSSNSASLTISGLKTEDEADYYCQSYDSSNQVFGCGTKLTVLGGGGSGGGGSGGGGSGGGGSQVTLKESGPGILQPSQTLSLTCSFSGFSLSTFGMGVGWIRQPSGKCLEWLAHIWWDDDKYYNPALKSRLTISKDTSKNQVFLKIANVDTADTATYYCARLGYYPYWFFDVWGTGTTVTVSSDKTHTCPPCPAPEFEGGPSVFLFPPKPKDTLMISRTPEVTCVVVDVSHEDPEVKFNWYVDGVEVHNAKTKPREEQYNSTYRVVSVLTVLHQDWLNGKEYKCKVSNKALPASIEKTISKAKGQPREPQVYTLPPCREEMTKNQVSLWCLVKGFYPSDIAVEWESNGQPENNYKTTPPVLDSDGSFFLYSKLTVDKSRWQQGNVFSCSVMHEALHNHYTQKSLSLSPGK
chain 2: B1 chain 2
chain 3: B1 chain 3
B6: CD3 × CD33-BspAb62 (bispecific antibody)
chain 1: NFMLTQPHSVSESPGKTVTISCTRSSGSIASNYVQWYQQRPGSSPTTVIYEDNQRPSGVPDRFSGSIDSSSNSASLTISGLKTEDEADYYCQSYDSSNHVFGCGTKLTVLGGGGSGGGGSGGGGSGGGGSEVQLVESGGGLVQPGGSLRLSCAASGFTFSRYSMNWVRQAPGKCLEWVSYISSSSSSIYYADSVKGRFTISRDNAKNSLYLQMNSLRDEDTAVYYCARDRRATLDYWGQGTLVTVSSDKTHTCPPCPAPEFEGGPSVFLFPPKPKDTLMISRTPEVTCVVVDVSHEDPEVKFNWYVDGVEVHNAKTKPREEQYNSTYRVVSVLTVLHQDWLNGKEYKCKVSNKALPASIEKTISKAKGQPREPQVYTLPPCREEMTKNQVSLWCLVKGFYPSDIAVEWESNGQPENNYKTTPPVLDSDGSFFLYSKLTVDKSRWQQGNVFSCSVMHEALHNHYTQKSLSLSPGK
chain 2: B1 chain 2
chain 3: B1 chain 3

The first assay deals with T1, human CD3 (TCR/CD3 complex on the cell surface) (human, UniProt P07766 23-207; P04234 22-171; P09693 23-182).
T1 construct: whole, on cells; Native CD3 on human Pan-T cells or Jurkat wild-type cells; also called CD3 on Pan-T cells; CD3 on Jurkat WT cells
T1 sequence (P07766 23-207, chain 1 of 3): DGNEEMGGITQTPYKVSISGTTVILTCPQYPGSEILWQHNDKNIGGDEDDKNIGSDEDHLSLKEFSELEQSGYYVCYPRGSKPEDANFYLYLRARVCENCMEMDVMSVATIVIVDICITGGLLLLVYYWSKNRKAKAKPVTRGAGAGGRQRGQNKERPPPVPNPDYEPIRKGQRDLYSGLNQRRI
T1 sequence (P04234 22-171, chain 2 of 3): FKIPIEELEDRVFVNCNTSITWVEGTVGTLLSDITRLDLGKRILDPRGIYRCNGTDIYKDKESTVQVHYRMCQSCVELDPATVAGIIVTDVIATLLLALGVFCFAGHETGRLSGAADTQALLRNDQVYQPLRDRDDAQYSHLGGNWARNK
T1 sequence (P09693 23-182, chain 3 of 3): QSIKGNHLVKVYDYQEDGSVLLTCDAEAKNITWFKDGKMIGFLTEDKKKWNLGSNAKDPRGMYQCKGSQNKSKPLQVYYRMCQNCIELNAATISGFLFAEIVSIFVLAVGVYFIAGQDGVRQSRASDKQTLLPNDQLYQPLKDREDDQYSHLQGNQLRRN
Briefly: flow cytometry, Pan-T cells, 10 ug/mL.
Consider B1, for which the “% Positive” value amounted to 66.1% and the gMFI worked out at 8340 gMFI.
Regarding B2, the “% Positive” value amounted to 95.9% and the gMFI worked out at 22000 gMFI.
Take B3: the “% Positive” value was found to be 99.7% and the gMFI was determined as 149000 gMFI.
B4: the “% Positive” value was 99.5% and the gMFI is 43400 gMFI.

The next assay concerns the target T1, human CD3 (TCR/CD3 complex on the cell …). Briefly: flow cytometry, Jurkat WT gMFI over Jurkat KO gMFI, 10 ug/mL.
B1: the “Jurkat WT/KO (Fold)” value turned out to be 2 fold.
The same measure, in the same setting: under B2 stands 3 fold.
Turning to B3, the “Jurkat WT/KO (Fold)” value was found to be 7.2 fold.
Same read-out and setting: for B4 the value was 4.4 fold.

The next assay shares this target. Put plainly: flow cytometry, Pan-T cells, 1 ug/mL. (A flow cytometer gives signals particle by particle.)
Regarding B1, the “% Positive” value was determined as 2% and the gMFI is 2430 gMFI.
As for B2, the “% Positive” value came out at 17.3% and the gMFI worked out at 4180 gMFI.
The like results for B3 were, in that order, 99.2% and 69800 gMFI.
The like results for B4 were, in that order, 50.2% and 6790 gMFI.

A further assay has the same target. Put plainly: flow cytometry, Jurkat WT gMFI over Jurkat KO gMFI, 1 ug/mL.
B1: the “Jurkat WT/KO (Fold)” value was 1 fold.
The same measure, in the same setting: under B2 stands 1.2 fold; under B3, 5.3 fold.
For the molecule B4, the “Jurkat WT/KO (Fold)” value amounted to 1.5 fold.

A further assay has as its target recombinant CD3 proteins. Briefly: Octet (BLI), bispecific antibody against recombinant CD3 proteins. Background: BLI is a label-free optical method that tracks binding on a fibre tip over time.
As usually defined, the Kd is the equilibrium constant for the complex coming apart. As usually defined, the koff is a measure of how fast the partners let go of each other. Usually kon stands for the rate constant with which the complex forms. Consider B5, for which the Kd amounted to 11.7 nM, the Response came to 0.09, the koff amounted to 0.00134 s⁻¹ and the kon came to 114000 M⁻¹ s⁻¹.
Regarding B6, the Kd was 85.9 nM, the Response is 0.25, the koff was determined as 0.0474 s⁻¹ and the kon was found to be 552000 M⁻¹ s⁻¹.

The target of another assay is T1, human CD3 (TCR/CD3 complex on the cell …). Briefly: flow cytometry, Jurkat WT cells, 1 ug/mL.
In the case of B1, the gMFI came to 1950 gMFI.
On the same count and under the same terms, under B2 stands 2510 gMFI; under B3, 11300 gMFI; under B4, 3180 gMFI.

For the next assay the target is unchanged. Briefly: flow cytometry, Jurkat WT cells, 10 ug/mL.
Turning to B1, the gMFI is 3760 gMFI.
On the same count and under the same terms, under B2 stands 6110 gMFI; under B3, 15900 gMFI; under B4, 9780 gMFI.
